Reference: patent US20190211096A1

Experiments:
[1] = molecular target: human AMH of serum samples (human) (UniProt P03971); assay: VIDAS sandwich, detection AA011 conjugate 500 ng/ml, AMH 4 ng/ml
[2] = molecular target: human AMH of serum samples (human) (UniProt P03971); assay: VIDAS sandwich, detection AA011 conjugate 500 ng/ml, AMH 11 ng/ml
[3] = molecular target: human AMH of serum samples (human) (UniProt P03971); assay: VIDAS sandwich, detection AA011 conjugate 500 ng/ml, AMH 0.9 ng/ml
[4] = molecular target: human AMH of serum samples (human) (UniProt P03971); assay: VIDAS sandwich, detection AA011 conjugate 500 ng/ml, AMH 2.1 ng/ml
[5] = molecular target: human AMH of serum samples (human) (UniProt P03971); assay: VIDAS sandwich, detection AA011 conjugate 500 ng/ml, AMH 6.3 ng/ml
[6] = molecular target: human AMH of serum samples (human) (UniProt P03971); assay: VIDAS sandwich, detection AA011 conjugate 500 ng/ml, AMH 8.7 ng/ml
[7] = molecular target: human AMH of serum samples (human) (UniProt P03971); assay: VIDAS sandwich, detection AA011 conjugate 500 ng/ml, AMH 0.11 ng/ml
[8] = molecular target: human AMH of serum samples (human) (UniProt P03971); assay: VIDAS sandwich, detection AA011 conjugate 500 ng/ml, AMH 0.055 ng/ml
[9] = molecular target: human AMH of serum samples (human) (UniProt P03971); assay: VIDAS sandwich, detection AA011 conjugate 500 ng/ml, AMH 0.275 ng/ml

Chain of UniProt P03971 (P03971 25-560 limits assumed): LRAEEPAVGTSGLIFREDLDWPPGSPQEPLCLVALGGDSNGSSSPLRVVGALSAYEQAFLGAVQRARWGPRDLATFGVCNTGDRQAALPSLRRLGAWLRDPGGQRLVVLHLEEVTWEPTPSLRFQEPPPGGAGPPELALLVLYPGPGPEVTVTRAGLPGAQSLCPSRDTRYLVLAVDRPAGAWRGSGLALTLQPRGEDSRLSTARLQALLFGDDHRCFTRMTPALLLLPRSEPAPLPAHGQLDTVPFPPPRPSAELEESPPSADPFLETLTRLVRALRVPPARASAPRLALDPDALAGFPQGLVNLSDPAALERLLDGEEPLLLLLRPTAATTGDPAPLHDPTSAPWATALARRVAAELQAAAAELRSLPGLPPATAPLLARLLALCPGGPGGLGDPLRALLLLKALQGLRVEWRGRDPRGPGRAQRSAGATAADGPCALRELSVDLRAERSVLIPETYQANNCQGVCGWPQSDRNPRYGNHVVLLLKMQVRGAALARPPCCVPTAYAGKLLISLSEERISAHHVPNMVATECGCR

S/N (VIDAS RFV/RFV0) [1]: 65 | VIDAS RFV Signal [1]: 2940 RFV | S/N (VIDAS RFV/RFV0) [2]: 120 | VIDAS RFV Signal [2]: 5390 RFV | S/N (VIDAS RFV/RFV0) [3]: 16 | VIDAS RFV Signal [3]: 735 RFV | S/N (VIDAS RFV/RFV0) [4]: 36 | VIDAS RFV Signal [4]: 1600 RFV | S/N (VIDAS RFV/RFV0) [5]: 87 | VIDAS RFV Signal [5]: 3920 RFV | S/N (VIDAS RFV/RFV0) [6]: 107 | VIDAS RFV Signal [6]: 4810 RFV | S/N (VIDAS RFV/RFV0) [7]: 3 | VIDAS RFV Signal [7]: 113 RFV | S/N (VIDAS RFV/RFV0) [8]: 2 | VIDAS RFV Signal [8]: 81 RFV | S/N (VIDAS RFV/RFV0) [9]: 5 | VIDAS RFV Signal [9]: 209 RFV
Substance: AA012 commercial anti-AMH antibody (AnshLabs)
